{"source": "patent US6428997", "key": {"[1]": {"biological_target": "methionyl human growth hormone (UniProt P01241)", "sequence (P01241 other isoform, or with tags, fused parts or gaps)": "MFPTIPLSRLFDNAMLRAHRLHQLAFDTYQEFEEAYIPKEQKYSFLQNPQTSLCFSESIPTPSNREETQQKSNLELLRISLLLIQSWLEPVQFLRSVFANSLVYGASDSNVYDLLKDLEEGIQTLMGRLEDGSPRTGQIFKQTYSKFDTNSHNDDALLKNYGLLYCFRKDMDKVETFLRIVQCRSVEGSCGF"}, "[2]": {"system": "T1, leucyl oligopeptide of SEQ ID NO: 2", "T1 sequence": "LFPTEPS"}, "[3]": {"system": "T2, methionyl oligopeptide of SEQ ID NO: 1 (Met-Phe-Pro-Thr-Glu-Pro-Ser)", "T2 sequence": "MFPTEPS"}}, "data": [{"substance": "aminopeptidase from Bacillus licheniformis (purified from Bacillus licheniformis ATCC 12759)", "values": [{"measurement": "removal of N-terminal methionine (N-terminal sequencing of the recovered HGH)", "setting": "[1]", "result": "remove N-terminal methionine of methionyl HGH completely"}, {"measurement": "removal of N-terminal methionine, large scale (N-terminal sequencing of the recovered HGH)", "setting": "[1]", "result": "HGH produced by the above process had phenylalanine at the N-terminus due to methionine removal"}, {"measurement": "Kcat/Km", "setting": "[2]", "result": "1.63e+06", "unit": "M⁻¹ s⁻¹"}, {"measurement": "Km", "setting": "[2]", "result": 172, "unit": "µM"}, {"measurement": "kcat", "setting": "[2]", "result": 276, "unit": "s⁻¹"}, {"measurement": "Kcat/Km", "setting": "[3]", "result": 56100, "unit": "M⁻¹ s⁻¹"}, {"measurement": "Km", "setting": "[3]", "result": 387, "unit": "µM"}, {"measurement": "kcat", "setting": "[3]", "result": 21.1, "unit": "s⁻¹"}]}]}
